Biological target: recombinant HDM2 17-125 (UniProt Q00987 17-125)
Test: FP competition with FITC-SAH-p53-8; FIG. 2B; axis prints HDMX, legend says HDM2

B1: SAH-p53-8 (peptide)
peptide: QSQQTFXNLWRLLXQN
modifications: not fully specified; amino acids at positions S20 and P27 (p53 numbering) replaced with synthetic olefinic residues joined by an i, i+7 hydrocarbon staple; acetyl-capped N-terminus in the competition FP assay
IC50: 216 nM
